In patent US20160039934A1 (AFFIRMED, published 2016):
Changes are numbered by the printed parent chain.

B1: TandAb G (SEQ ID NO:14) (bispecific antibody)
chain: DIQMTQSPSSLSASVGDRVTITCRSSTGAVTTSNYANWVQQKPGKAPKGLIGGTNKRAPGVPSRFSGSLIGDKATLTISSLQPEDFATYYCALWYSNLWVFGQGTKVEIKGGSGGSEVQLVQSGAEVKKPGESLKISCKGSGYSFTSYWIGWVRQMPGKGLEWMGIIYPGDSDTRYSPSFQGQVTISADKSISTAYLQWSSLKASDTAMYYCARLGSSWTNDAFDIWGQGTMVTVSSGGSGGSSYELTQPPSVSVSPGQTARITCSGDALPKQYAYWYQQKPGQAPVLVIYKDSERPSGIPERFSGSSSGTTVTLTISGVQAEDEADYYCQSADSSGTPLIVFGTGTKLTVLGGSGGSEVQLVESGGGLVQPGGSLRLSCAASGFTFSTYAMNWVRQAPGKGLEWVGRIRSKYNNYATYYADSVKDRFTISRDDSKNSLYLQMNSLKTEDTAVYYCARHGNFGNSYVSWFAYWGQGTLVTVSSAAAGSHHHHHH
B2: TandAb D (var_y) (SEQ ID NO:11) (bispecific antibody)
chain: B1 chain with G49A, W469Y
notes: Homodimeric tandem diabody; Detected by anti-His mAb
B3: TandAb E (var_z) (SEQ ID NO:12) (bispecific antibody)
chain: B1 chain with W469H
notes: as for B2

How the values were obtained:
EGFRvIII = EGFRvIII (UniProt P00533 25-1210); test: cell-based or functional assay
cynomolgus CD3 = target: T1, cynomolgus CD3 (cynomolgus, UniProt Q95LI5 22-198); test: flow cytometry on cynomolgus CD3+ HSC-F cells, anti-His mAb and FITC goat anti-mouse IgG, non-linear regression of MFI
T1 construct: whole, on cells; CD3 is a multi-chain complex; also called CD3 on cynomolgus CD3+ HSC-F cells; cynomolgus CD3-expressing cell line (HSC-F)
Description: (§1) Cell-surface bound tandem diabody was detected by anti-His mAb followed by FITC-conjugated goat anti-mouse IgG. To calculate KD, mean fluorescence intensities determined by flow cytometry were modeled as sigmoidal dose-response by non-linear regression.
(§2) FIGS. 3A and 3B present binding of titrated tandem diabodies TandAb D, containing var_y, and TandAb E (SEQ ID NO:12), containing var_z, to a CD3⁺ human T cell line (Jurkat) and a CD3⁺ cynomolgus cell line (HSC-F), as determined by flow cytometric analysis.

human CD3 [1] = target: T2, human CD3 (human, UniProt P07766 23-207); test: flow cytometry on human CD3+ Jurkat cells, anti-His mAb and FITC goat anti-mouse IgG, non-linear regression of MFI
T2 construct: whole, on cells; CD3 is a multi-chain complex; also called CD3 on human CD3+ Jurkat cells; CD3+ human T cell line (Jurkat)
Description: as §1, §2

human CD3 [2] = target: T2, human CD3; test: flow cytometry on Jurkat cells, non-linear regression (rounded restatement of the FIG. 3 value)
Description: as §1, §2

human CD3 [3] = target: T2, human CD3; test: flow cytometry on Jurkat cells; reference TandAb E
Description: as §1, §2

T2 sequence (P07766 23-207): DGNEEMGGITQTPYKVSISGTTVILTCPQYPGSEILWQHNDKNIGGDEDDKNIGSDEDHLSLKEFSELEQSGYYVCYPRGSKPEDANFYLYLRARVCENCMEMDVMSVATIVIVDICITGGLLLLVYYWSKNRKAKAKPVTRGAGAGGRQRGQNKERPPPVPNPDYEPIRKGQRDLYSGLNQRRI
T1 sequence (Q95LI5 22-198): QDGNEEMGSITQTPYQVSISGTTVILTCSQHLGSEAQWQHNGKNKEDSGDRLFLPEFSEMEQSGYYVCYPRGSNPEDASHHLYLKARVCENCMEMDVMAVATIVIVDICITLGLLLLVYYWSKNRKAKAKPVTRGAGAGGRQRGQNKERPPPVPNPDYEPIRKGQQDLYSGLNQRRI

| Binder | EC50, 4 h calcein release cytotoxicity assay (EGFRvIII) [nM] | Kd (cynomolgus CD3) [nM] | Kd (human CD3 [1]) [nM] | Kd (human CD3 [2]) [nM] | fold higher affinity than TandAb E (human CD3 [3]) [fold] |
| --- | --- | --- | --- | --- | --- |
| B1 | 0.129 |  |  |  |  |
| B2 | 0.122 | 3.4 | 1.82 | 1.8 | > 10 |
| B3 |  | 24.3 | 27.7 | 27.7 |  |
